The text below walks through data of paper PMC5578738 (eLife, 2017).

The assay deals with T1, Side-VI (CG34114) complete ectodomain, biotinylated (SPR) (Drosophila melanogaster, UniProt Q0KI85 1-1087, biotin on the biotin acceptor peptide (E. coli BirA)).
T1 construct: Side-VI (CG34114), Drosophila, complete ectodomain; source: Trichoplusia ni High Five cells, baculovirus, secreted, purified (Ni-NTA, SEC)
T1 sequence (looked up): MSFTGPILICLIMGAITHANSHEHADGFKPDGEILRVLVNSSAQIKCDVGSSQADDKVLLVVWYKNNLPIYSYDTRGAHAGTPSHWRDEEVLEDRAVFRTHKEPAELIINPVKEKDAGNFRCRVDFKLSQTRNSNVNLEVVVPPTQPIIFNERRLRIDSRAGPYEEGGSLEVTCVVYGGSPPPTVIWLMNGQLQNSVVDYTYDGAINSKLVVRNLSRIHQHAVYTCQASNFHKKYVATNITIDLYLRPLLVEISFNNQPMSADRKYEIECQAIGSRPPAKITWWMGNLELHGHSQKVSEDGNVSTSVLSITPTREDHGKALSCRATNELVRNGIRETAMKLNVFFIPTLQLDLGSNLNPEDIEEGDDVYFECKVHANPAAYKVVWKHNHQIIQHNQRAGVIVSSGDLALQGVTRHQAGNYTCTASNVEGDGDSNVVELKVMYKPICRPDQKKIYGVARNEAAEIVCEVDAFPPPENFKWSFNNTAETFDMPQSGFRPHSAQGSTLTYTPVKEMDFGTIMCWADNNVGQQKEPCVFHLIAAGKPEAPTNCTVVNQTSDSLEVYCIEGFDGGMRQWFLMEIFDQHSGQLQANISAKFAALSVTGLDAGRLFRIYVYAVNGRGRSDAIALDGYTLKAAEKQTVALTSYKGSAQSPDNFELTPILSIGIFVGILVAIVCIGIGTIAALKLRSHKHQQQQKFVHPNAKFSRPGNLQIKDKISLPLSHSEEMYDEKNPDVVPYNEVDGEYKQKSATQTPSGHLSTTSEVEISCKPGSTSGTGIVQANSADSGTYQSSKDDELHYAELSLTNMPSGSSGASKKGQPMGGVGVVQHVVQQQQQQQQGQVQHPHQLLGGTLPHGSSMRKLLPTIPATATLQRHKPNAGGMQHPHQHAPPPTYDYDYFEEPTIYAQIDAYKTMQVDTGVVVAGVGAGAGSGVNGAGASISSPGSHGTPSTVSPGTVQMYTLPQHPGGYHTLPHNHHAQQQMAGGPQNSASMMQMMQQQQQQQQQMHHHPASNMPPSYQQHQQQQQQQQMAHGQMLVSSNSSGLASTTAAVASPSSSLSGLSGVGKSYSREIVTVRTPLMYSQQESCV
As to the kind of experiment: SPR; Biacore T100; biotinylated Side-VI captured on an SA chip, Beat-Va or Beat-Vb flowed over; HBSp+ with 500 mM NaCl and 15% glycerol; equilibrium responses fitted to a Langmuir isotherm. Particulars: both partners purified. A general note: SPR reads the build-up and loss of mass on a sensor chip optically.

B1: Beat-Va complete ectodomain (SPR) (domain or fragment)
chain: LFVTDISVPEIVDFRDNVTLSCSYDMRGHTLNSVKWYKDHEEFFRYSPLTSPIYMTFDVAGLQVLEGKYVCNESSCRLDLSLQGAKSTGLYKCEVSGDAPHFKLADKADNMTVAALPQNDPLIESFNSMYRMEEYLKATCISDFSSLPTRLTWYINGEQPLLGELYPTTDTSLAAHDYVLRRQRLQVQFFLQGQRFFQAGKILELKCVAEIENYPELRREKTLSASLSQYDNFNNQMPLRHANANSGSAQRSILCGRTSLISAFLAAILLIHCLRRPS
The term Kd denotes the constant that tells how readily two partners part at equilibrium. A high value points to lower affinity. Usually koff stands for the rate constant with which the complex falls apart. A higher koff goes with a short-lived complex. B1 came in with a Kd of 760 nM and a koff not below 0.5 s⁻¹.
